From article PMC7307210, “Small sequence variations between two mammalian paralogs of the small GTPase SAR1 underlie functional differences in coat protein complex II assembly” (The Journal of Biological Chemistry, 2020) come the findings set out here.

The data set deals with the molecule itself. As to the kind of experiment: liposome aggregation assay (nanoparticle tracking); 1 μg SAR1 with 100-nm liposomes and GMP-PNP in HKM buffer, 3 h at 37 °C; particle number and size by NanoSight; self-association on a membrane surface.

B1: SAR1B (natural protein)
chain: not shown
notes: human SAR1B, full-length (198 residues), with the N-terminal amphipathic helix; also called Secretion-associated Ras-related GTPase 1 B; source: E. coli, purified as GST fusion (GSH-agarose), eluted by thrombin cleavage
Regarding B1, the binding result was “binds”.

B2: SAR1A (natural protein)
chain: not shown
notes: human SAR1A, full-length (198 residues), with the N-terminal amphipathic helix; also called Secretion-associated Ras-related GTPase 1 A; source: E. coli, purified as GST fusion (GSH-agarose), eluted by thrombin cleavage
Turning to B2, the binding result is “binds”.
